Assay [1] addresses 6His-Ska1/Ska2/Ska3 (WT) (UniProt Q96BD8). In words: SEC + other: velocity sedimentation on a sucrose gradient.
Assay [2] deals with tubulin (microtubules). In words: TIRF, tracking of depolymerizing microtubule ends. Particulars: reference: SKA wild type complex; sites S34.

Sequence of Ska3 (C13orf3, RAMA1) (Q8IX90 whole entry, looked up, stated change not applied): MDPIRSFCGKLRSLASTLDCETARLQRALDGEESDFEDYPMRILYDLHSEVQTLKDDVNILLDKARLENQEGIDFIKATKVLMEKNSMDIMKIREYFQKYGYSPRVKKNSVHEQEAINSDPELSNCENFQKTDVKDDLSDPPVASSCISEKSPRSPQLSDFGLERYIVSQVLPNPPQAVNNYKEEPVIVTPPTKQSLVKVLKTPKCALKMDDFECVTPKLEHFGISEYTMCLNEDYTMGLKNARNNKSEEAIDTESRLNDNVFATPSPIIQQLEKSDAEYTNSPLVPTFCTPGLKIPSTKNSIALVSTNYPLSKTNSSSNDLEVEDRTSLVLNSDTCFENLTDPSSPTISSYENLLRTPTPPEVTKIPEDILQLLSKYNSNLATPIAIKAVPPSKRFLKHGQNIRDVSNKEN
Sequence of 6His-Ska1/Ska2/Ska3 (WT) (from UniProt Q96BD8 1-255; Q8WVK7 1-121; Q8IX90 1-412) (complex) (Q96BD8 whole entry): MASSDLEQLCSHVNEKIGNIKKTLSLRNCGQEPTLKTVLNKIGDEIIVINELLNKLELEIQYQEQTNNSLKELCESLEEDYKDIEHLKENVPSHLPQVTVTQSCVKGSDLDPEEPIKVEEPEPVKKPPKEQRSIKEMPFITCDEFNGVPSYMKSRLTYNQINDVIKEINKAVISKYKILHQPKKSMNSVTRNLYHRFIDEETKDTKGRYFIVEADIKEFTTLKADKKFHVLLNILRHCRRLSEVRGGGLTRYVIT
Sequence of 6His-Ska1/Ska2/Ska3 (WT) (from UniProt Q96BD8 1-255; Q8WVK7 1-121; Q8IX90 1-412) (complex) (Q8WVK7 whole entry): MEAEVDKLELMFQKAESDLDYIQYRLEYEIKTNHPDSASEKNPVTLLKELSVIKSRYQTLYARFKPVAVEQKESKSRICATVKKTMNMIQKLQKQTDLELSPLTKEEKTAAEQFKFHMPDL
Sequence of 6His-Ska1/Ska2/Ska3 (WT) (from UniProt Q96BD8 1-255; Q8WVK7 1-121; Q8IX90 1-412) (complex) (Q8IX90 whole entry): as the sequence (Q8IX90 whole entry, looked up, stated change not applied) above

In general, stoichiometry N refers to a count of units in the complex or per binding partner. “6His-Ska1/Ska2/Ska3 (WT) (from UniProt Q96BD8 1-255; Q8WVK7 1-121; Q8IX90 1-412) (complex)”: in assay [1], the stoichiometry N was 2. Regarding “Ska3 (C13orf3, RAMA1) (from UniProt Q8IX90) SKA S34A complex”, the “other: median post/pre-conversion intensity ratio” value in assay [2] is reported as “same; reference 1.01”.

The values are drawn from article PMC5477644.
